Experimental findings from PMC3115793 (The Journal of Cell Biology, 2011) are described below.

The experiment has as its target T1, recombinant purified full-length AurA (His-AurA) (UniProt O14965 1-403).
T1 sequence (looked up): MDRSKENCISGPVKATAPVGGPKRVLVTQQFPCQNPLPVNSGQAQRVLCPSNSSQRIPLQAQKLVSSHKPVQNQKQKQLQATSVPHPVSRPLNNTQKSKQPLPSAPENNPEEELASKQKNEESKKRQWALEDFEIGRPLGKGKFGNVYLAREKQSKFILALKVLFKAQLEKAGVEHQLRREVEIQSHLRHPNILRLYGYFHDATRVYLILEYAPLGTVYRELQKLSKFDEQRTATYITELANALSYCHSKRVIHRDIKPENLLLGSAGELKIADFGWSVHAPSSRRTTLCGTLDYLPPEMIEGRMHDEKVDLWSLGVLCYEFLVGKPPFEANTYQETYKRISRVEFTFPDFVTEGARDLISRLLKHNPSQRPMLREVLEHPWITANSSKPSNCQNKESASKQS
Description: pull-down.

B1: GST fused to aa 779-968 of the PC2 C terminus (domain or fragment, human, UniProt Q13563 779-968, looked up)
chain: RDDLEKEREDLDLDHSSLPRPMSSRSFPRSLDDSEEDDDEDSGHSSRRRGSISSGVSYEEFQVLVRRVDRMEHSIGSIVSKIDAVIVKLEIMERAKLKRREVLGRLLDGVAEDERLGRDSEIHREQMERLVREELERWESDDAASQISHGLGTPVGLNGQPRPRSSRPSSSQSTEGMEGAGGNGSSNVHV
For B1, the binding result is given as “binds”.
